Measurements as given in the supplement of paper PMC9732359.
± gives the uncertainty stated by the source.

Experiment: protein stability index of a GFP-peptide fusion (yeast GPS) (PSI 1-4); higher = more stable; sorted into four equal gates, so the index is relative within each strain
Procedure, shortened: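 Yeast carrying a pooled library were grown to mid-log phase in leucine-free medium. Each library plasmid expresses Cherry and has a tiled 17-residue yeast protein peptide fused downstream of GFP. Cells were sorted into four equal gates by GFP/Cherry ratio, and plasmids from each gate were PCR-amplified, Illumina-sequenced and assigned to strains by barcode. Summing, across gates, the read frequency times the gate number gave each peptide's protein stability index.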

KDTTGPKAISNFLIKLS [YCS4]
protein stability index (doa10∆): 2.09 ± 0.11 | protein stability index (pdr5∆): 2.08 ± 0.1 | protein stability index (san1∆): 1.34 ± 0.14 | protein stability index (ubr1∆): 1.52 ± 0.065

KEDKSEAIDGNGEIKGE [SNF2]
protein stability index (doa10∆): 2.23 ± 0.049 | protein stability index (pdr5∆): 2.81 ± 0.083 | protein stability index (san1∆): 2.17 ± 0.073 | protein stability index (ubr1∆): 2.48 ± 0.084

KEIDPSQTTQLAGMDVE [FAS2]
protein stability index (doa10∆): 3.14 ± 0.086 | protein stability index (pdr5∆): 3.28 ± 0.11 | protein stability index (san1∆): 3.15 ± 0.077 | protein stability index (ubr1∆): 3.6 ± 0.069

KEKKELQMRLKESEISH [YIL149C/MLP2]
protein stability index (doa10∆): 2.6 ± 0.22 | protein stability index (pdr5∆): 2.94 ± 0.17 | protein stability index (san1∆): 3.04 ± 0.17 | protein stability index (ubr1∆): 3.04 ± 0.15

KELELERKEREDFQKRQ [SWI1]
protein stability index (doa10∆): 3.25 ± 0.076 | protein stability index (pdr5∆): 3.22 ± 0.078 | protein stability index (san1∆): 3.32 ± 0.068 | protein stability index (ubr1∆): 3.31 ± 0.045

KELTRIPGEEVEETEVP [MED4]
protein stability index (doa10∆): 3.21 ± 0.16 | protein stability index (pdr5∆): 3.23 ± 0.21 | protein stability index (san1∆): 3.02 ± 0.13

KENYPWELYTDFNEIVQ [POP3]
protein stability index (doa10∆): 2.42 ± 0.25 | protein stability index (san1∆): 2.4 ± 0.16

KEQENITIQDLLFPKST [DPB4]
protein stability index (doa10∆): 3.05 ± 0.1 | protein stability index (pdr5∆): 2.64 ± 0.13 | protein stability index (san1∆): 2.52 ± 0.087 | protein stability index (ubr1∆): 2.75 ± 0.086

KERISVAAASKILSNLV [PRE2]
protein stability index (doa10∆): 2.75 ± 0.059 | protein stability index (pdr5∆): 2.69 ± 0.041 | protein stability index (san1∆): 2.78 ± 0.048 | protein stability index (ubr1∆): 2.71 ± 0.034

KERLTKEAAAVAEGKSK [RPL8A]
protein stability index (doa10∆): 3.53 ± 0.16 | protein stability index (pdr5∆): 2.74 ± 0.22 | protein stability index (san1∆): 3.31 ± 0.15 | protein stability index (ubr1∆): 3.1 ± 0.16

KERSDGKRHIFDVNTLC [CDC53]
protein stability index (doa10∆): 1.27 ± 0.052 | protein stability index (pdr5∆): 1.76 ± 0.062 | protein stability index (san1∆): 1.26 ± 0.13 | protein stability index (ubr1∆): 1.92 ± 0.085

KESAVISKQKSKLDYIF [SMC1]
protein stability index (doa10∆): 3.04 ± 0.18 | protein stability index (pdr5∆): 2.81 ± 0.11 | protein stability index (san1∆): 3.05 ± 0.11 | protein stability index (ubr1∆): 2.98 ± 0.12

KESDDPSIPLVIIRRLK [POP1]
protein stability index (doa10∆): 3.12 ± 0.1 | protein stability index (pdr5∆): 2.07 ± 0.064 | protein stability index (san1∆): 3.06 ± 0.068 | protein stability index (ubr1∆): 3.05 ± 0.093

KEYISRLWHTLKYYQDL [SNF5]
protein stability index (doa10∆): 1.47 ± 0.068 | protein stability index (pdr5∆): 1.55 ± 0.06 | protein stability index (san1∆): 1.42 ± 0.1 | protein stability index (ubr1∆): 1.58 ± 0.054

KFDIIIVDTSGRHHQEE [SRP54]
protein stability index (doa10∆): 3.01 ± 0.07 | protein stability index (pdr5∆): 2.94 ± 0.046 | protein stability index (san1∆): 2.71 ± 0.072 | protein stability index (ubr1∆): 3.17 ± 0.06

KFFHNGMIYNKLFVSKE [FAS2]
protein stability index (doa10∆): 2.87 ± 0.089 | protein stability index (pdr5∆): 2.54 ± 0.086 | protein stability index (san1∆): 2.38 ± 0.12 | protein stability index (ubr1∆): 2.58 ± 0.077

KFFRVKYENKISTVIEV [SMC3]
protein stability index (doa10∆): 1.35 ± 0.13 | protein stability index (pdr5∆): 1.2 ± 0.11 | protein stability index (san1∆): 1.09 ± 0.28 | protein stability index (ubr1∆): 1.12 ± 0.087

KFHKREVVEAVTVVDTP [RPL3]
protein stability index (doa10∆): 1.44 ± 0.075 | protein stability index (pdr5∆): 1.55 ± 0.066 | protein stability index (san1∆): 1.63 ± 0.18 | protein stability index (ubr1∆): 1.45 ± 0.069

KFKRHHSDRYHRVAENW [RPL32]
protein stability index (doa10∆): 3 ± 0.072 | protein stability index (pdr5∆): 3.21 ± 0.065 | protein stability index (san1∆): 3.2 ± 0.05 | protein stability index (ubr1∆): 3.07 ± 0.045

KFLQEFINLLLNCCGSV [IRR1]
protein stability index (doa10∆): 2.07 ± 0.11 | protein stability index (pdr5∆): 1.74 ± 0.091 | protein stability index (san1∆): 1.57 ± 0.11 | protein stability index (ubr1∆): 1.8 ± 0.062

KFPPPTPLLENISISTS [BRR2]
protein stability index (doa10∆): 1.83 ± 0.054 | protein stability index (pdr5∆): 1.84 ± 0.056 | protein stability index (san1∆): 1.63 ± 0.094 | protein stability index (ubr1∆): 1.68 ± 0.045

KFTTVLAKILARSIDVE [ECM29]
protein stability index (pdr5∆): 1.53 ± 0.2 | protein stability index (san1∆): 2.94 ± 0.14 | protein stability index (ubr1∆): 3.01 ± 0.22

KGAGLSMGTMICGYTRK [PRE2]
protein stability index (doa10∆): 1.64 ± 0.16 | protein stability index (pdr5∆): 1.27 ± 0.17 | protein stability index (ubr1∆): 1.11 ± 0.17

KGGKGLGKGGAKRHRKI [HHF1]
protein stability index (doa10∆): 3.7 ± 0.22 | protein stability index (pdr5∆): 3.59 ± 0.19 | protein stability index (san1∆): 3.65 ± 0.067 | protein stability index (ubr1∆): 3.59 ± 0.053

KGLKENDVAVEKTGKSA [BRR2]
protein stability index (doa10∆): 3.03 ± 0.15 | protein stability index (san1∆): 2.73 ± 0.21

KGPAIDELSSKELVECH [NNF1]
protein stability index (doa10∆): 3.04 ± 0.055 | protein stability index (pdr5∆): 3.13 ± 0.068 | protein stability index (san1∆): 2.78 ± 0.077 | protein stability index (ubr1∆): 2.82 ± 0.047

KGRAYKRLLYTRRFVNV [RPS30A]
protein stability index (doa10∆): 2.38 ± 0.058 | protein stability index (pdr5∆): 2.12 ± 0.064 | protein stability index (san1∆): 2.81 ± 0.069 | protein stability index (ubr1∆): 2.76 ± 0.039

KGRNNESNNKKYPIFTG [YDL088C/ASM4]
protein stability index (doa10∆): 2.87 ± 0.064 | protein stability index (pdr5∆): 2.95 ± 0.063 | protein stability index (san1∆): 2.67 ± 0.059 | protein stability index (ubr1∆): 2.9 ± 0.049

KGTEASNDIIDKPYLLR [YDL116W/NUP84]
protein stability index (doa10∆): 3.33 ± 0.09 | protein stability index (pdr5∆): 3.23 ± 0.078 | protein stability index (san1∆): 3.34 ± 0.1 | protein stability index (ubr1∆): 2.76 ± 0.11

KIAGIEGHLAEIRAKEY [SRB2]
protein stability index (doa10∆): 3.36 ± 0.12 | protein stability index (pdr5∆): 3.41 ± 0.097 | protein stability index (san1∆): 3.4 ± 0.071 | protein stability index (ubr1∆): 3.31 ± 0.058

KIALMNIPKPLNSYHIK [RGR1]
protein stability index (doa10∆): 1.65 ± 0.033 | protein stability index (pdr5∆): 1.81 ± 0.028 | protein stability index (san1∆): 1.69 ± 0.041 | protein stability index (ubr1∆): 1.83 ± 0.022

KIAYRGVKDCQEGLITT [SSN2]
protein stability index (doa10∆): 2.08 ± 0.23 | protein stability index (san1∆): 2.91 ± 0.22 | protein stability index (ubr1∆): 2.7 ± 0.22

KIDLLSGQFYFRNPTPL [RGR1]
protein stability index (doa10∆): 2.67 ± 0.22 | protein stability index (pdr5∆): 3.03 ± 0.15 | protein stability index (san1∆): 3.12 ± 0.076 | protein stability index (ubr1∆): 2.82 ± 0.074

KIEGVATPQDAQFYLGK [RPL33A]
protein stability index (doa10∆): 2.78 ± 0.086 | protein stability index (pdr5∆): 3.12 ± 0.07 | protein stability index (san1∆): 3.3 ± 0.063 | protein stability index (ubr1∆): 3.25 ± 0.083

KIKDVQQQIESNEEQRN [SMC3]
protein stability index (doa10∆): 3.22 ± 0.091 | protein stability index (pdr5∆): 3.17 ± 0.082 | protein stability index (san1∆): 3.18 ± 0.076 | protein stability index (ubr1∆): 2.85 ± 0.11

KIKQYERLRFYKDTFTL [RRI1]
protein stability index (doa10∆): 2.78 ± 0.056 | protein stability index (pdr5∆): 2.54 ± 0.055 | protein stability index (san1∆): 2.4 ± 0.049 | protein stability index (ubr1∆): 2.81 ± 0.039

KILGKGRIPNVPVIVKA [RPL28]
protein stability index (doa10∆): 2.35 ± 0.065 | protein stability index (pdr5∆): 1.87 ± 0.081 | protein stability index (san1∆): 2.37 ± 0.085 | protein stability index (ubr1∆): 3.24 ± 0.054

KILITYGSSPKLLATST [SRB8]
protein stability index (doa10∆): 1.22 ± 0.039 | protein stability index (pdr5∆): 1.33 ± 0.039 | protein stability index (san1∆): 1.48 ± 0.091 | protein stability index (ubr1∆): 1.53 ± 0.042

KILMYQYNIPPEREVLV [RRP6]
protein stability index (doa10∆): 1.78 ± 0.075 | protein stability index (pdr5∆): 2.04 ± 0.077 | protein stability index (san1∆): 1.77 ± 0.2 | protein stability index (ubr1∆): 1.72 ± 0.087

KILNIIKCSQSSHLSDN [POP5]
protein stability index (doa10∆): 1.97 ± 0.05 | protein stability index (pdr5∆): 2.77 ± 0.069 | protein stability index (san1∆): 2.28 ± 0.065 | protein stability index (ubr1∆): 2.09 ± 0.053

KILNLEKPLILADYIVE [NUT1]
protein stability index (doa10∆): 1.58 ± 0.1 | protein stability index (pdr5∆): 1.56 ± 0.061 | protein stability index (san1∆): 1.22 ± 0.18 | protein stability index (ubr1∆): 1.3 ± 0.07

KIMQSISNKDVIFKIRD [SRB4]
protein stability index (doa10∆): 3.34 ± 0.1 | protein stability index (pdr5∆): 2.91 ± 0.15 | protein stability index (san1∆): 3.22 ± 0.11 | protein stability index (ubr1∆): 2.72 ± 0.12

KIMVAEWYLSHLCSGIL [SRB8]
protein stability index (doa10∆): 1.35 ± 0.056 | protein stability index (pdr5∆): 1.39 ± 0.057 | protein stability index (san1∆): 1.24 ± 0.077 | protein stability index (ubr1∆): 1.47 ± 0.049

KINDESSIDKKSSILTV [YML103C/NUP188]
protein stability index (doa10∆): 2.35 ± 0.062 | protein stability index (pdr5∆): 2.68 ± 0.067 | protein stability index (san1∆): 2.56 ± 0.059 | protein stability index (ubr1∆): 2.52 ± 0.056

KINRPPVSVSRIARALK [RPL18A]
protein stability index (pdr5∆): 2.06 ± 0.1 | protein stability index (san1∆): 1.97 ± 0.13 | protein stability index (ubr1∆): 2.66 ± 0.18

KINTRGAEDPKVLINDQ [SWI1]
protein stability index (doa10∆): 3.02 ± 0.2 | protein stability index (pdr5∆): 3.34 ± 0.13 | protein stability index (san1∆): 3.26 ± 0.14 | protein stability index (ubr1∆): 3.11 ± 0.054

KIQFILEQMELSILKGD [RPN5]
protein stability index (pdr5∆): 2.57 ± 0.23 | protein stability index (san1∆): 2.35 ± 0.29 | protein stability index (ubr1∆): 2.65 ± 0.19

KISDDELERILKELSNL [RPB4]
protein stability index (doa10∆): 3.16 ± 0.13 | protein stability index (pdr5∆): 3.17 ± 0.091 | protein stability index (ubr1∆): 3 ± 0.1

KIVFILDSDSENDLSFA [RRI2]
protein stability index (doa10∆): 2.52 ± 0.059 | protein stability index (pdr5∆): 2.61 ± 0.059 | protein stability index (san1∆): 2.09 ± 0.12 | protein stability index (ubr1∆): 2.59 ± 0.047

KIYNFGELLHHPIMETI [RPN9]
protein stability index (doa10∆): 2.58 ± 0.068 | protein stability index (pdr5∆): 2.6 ± 0.074 | protein stability index (san1∆): 1.84 ± 0.11 | protein stability index (ubr1∆): 2.91 ± 0.11

KIYRVGKGDDEANGATS [RPL3]
protein stability index (doa10∆): 3.45 ± 0.071 | protein stability index (pdr5∆): 3.6 ± 0.1 | protein stability index (san1∆): 3.67 ± 0.045 | protein stability index (ubr1∆): 3.22 ± 0.11
